The text below walks through data of patent publication US20230167453, “RNA APTAMERS AND USE THEREOF FOR TREATING CANCER” (Board of Regents, The University of Texas System, published 2023).

The target in data set [1] is T1, CD5L (CD5 antigen-like) (Homo sapiens, UniProt O43866 O43866:20-347).
T1 sequence: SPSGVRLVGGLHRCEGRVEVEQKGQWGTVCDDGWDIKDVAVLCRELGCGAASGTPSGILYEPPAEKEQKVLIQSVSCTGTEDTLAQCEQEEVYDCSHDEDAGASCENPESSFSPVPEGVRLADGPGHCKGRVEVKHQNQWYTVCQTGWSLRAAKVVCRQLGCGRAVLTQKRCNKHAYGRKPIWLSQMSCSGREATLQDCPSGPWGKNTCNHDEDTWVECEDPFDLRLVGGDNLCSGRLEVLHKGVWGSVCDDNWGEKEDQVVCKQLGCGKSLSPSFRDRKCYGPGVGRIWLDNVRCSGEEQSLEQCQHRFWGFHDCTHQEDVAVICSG
As to the kind of experiment: MST; pH 7.4, 1 mM MgCl2, 0.1% Tween20. To be noted: tags: His-tagged, Sino Biological 10791-H08H; fluorescently labeled for MST except with Cy5-S76.T; predicted hairpin. As to the method: (§1) Regarding the three sequences of the second selection, S11 and S23 sequences were incubated with constant concentration (1 nM) of labeled CD5L purified recombinant protein (Sino Biological Inc., Beijing, China) or labeled VEGF scrambled protein used as negative control (R&D System). S11 and S23 were diluted 1:1 (from 15000 to 0.05 nM) in binding buffer (pH 7.4, 1 mM MgCl2, 0.1% Tween20). S76 sequence was diluted 1:1 in Tris-buffered saline (TBS) from 1000 nM to 0.03 nM. S76.T was labeled with Cy5 and the concentration was kept constant at 2 nM. CD5L was diluted from 2000 nM to 0.06 nM in 50 mM Tris-HCl pH 7.8, 150 mM NaCl, 0.05% Tween20. 5 μl of each dilution step were mixed with 5 μl of the labeled CD5L or VEGF. The final reaction mixture contained a respective amount of aptamer sequences and constant 1 nM labeled CD5L or VEGF.

Data set [2] deals with T1, CD5L (CD5 antigen-like). Description: MST; PBS pH 7.4, 1 mM MgCl2, 0.05% Tween20. Conditions: tags: His-tagged, Sino Biological 10791-H08H; fluorescently labeled for MST except with Cy5-S76.T; three predicted hairpins followed by single-strand ends. As for the experimental part: A serial dilution of S5, S47, S63 and S72 was prepared in specific buffer composed by PBS pH 7.4, 1 mM of MgCl2 and 0.05% Tween20. The highest concentration used was 18000 nM and the lowest 0.54 nM. 4 μl of each dilution step were mixed with 4 μl of the labeled molecule CD5L purified recombinant protein (Sino Biological Inc., Beijing, China) or VEGF scrambled protein used as negative control (R&D System) (constant concentration of 12.5 nM).

The target of data set [3] is T1, CD5L (CD5 antigen-like). Description: MST; TBS; 1 nM labeled CD5L. Conditions: tags: His-tagged, Sino Biological 10791-H08H; fluorescently labeled for MST except with Cy5-S76.T; predicted hairpin. As to the method:
as §1

The target in data set [4] is T1, CD5L (CD5 antigen-like). Description: MST; 50 mM Tris-HCl pH 7.8, 150 mM NaCl, 10 mM MgCl2, 0.05% Tween-20; 2 nM Cy5-S76.T. Conditions: tags: His-tagged, Sino Biological 10791-H08H; fluorescently labeled for MST except with Cy5-S76.T; label: Cy5 (MST); hairpin. As for the experimental part:
For Cy5 labeled S76.T, a serial dilution of CD5L was prepared in the buffer composed by 50 mM Tris-HCl pH7.8, 150 mM NaCl, 10 mM MgCl2, 0.05 Tween-20. The highest concentration of CD5L was 2000 nM and the lowest 0.06 nM. 4 μl of each dilution step were mixed with 4 μl of the Cy5 labeled S76 truncated (4 nM stock). The final reaction mixture, which was filled in standard capillaries, contained a respective amount of CD5L (max. conc. 1000 nM, min conc. 0.03 nM) and constant 2 nM labeled S76 truncated MST measurement was obtained using Monolith NT.115 (NanoTemper Technologies GmbH, Munich, Germany) with standard capillaries. KD was determined as described by (Stoltenburg et al., 2015).

B1: S11 (ssRNA)
RNA: AGACAAGAAUAAACGCUCAAUUAUCGGAGAGGCCGAACAGAUACUUCGUUAGACACCUUGCAGCGUUCGACAGGAGGC
modifications: 2'-F pyrimidines
As a reminder, the Kd is the free concentration of one partner at which half of the binding sites on the other are occupied at equilibrium, for simple one-to-one binding. As to B1, in the data set with CD5L (CD5 antigen-like) [1], the Kd is 59.2 nM.

B2: S5 (ssRNA)
RNA: AGACAAGAAUAAACGCUCAAGCGAAGGUGUGACCACAAACCACAUAAAGGCAAGGUCGCGCCGCGUUCGACAGGAGGCUCACAACAGGC
modifications: 2'-F pyrimidines
As for B2, the Kd with CD5L (CD5 antigen-like) [2] is 556 nM.

B3: S76 (ssRNA)
RNA: AGACAAGAAUAAACGCUCAAUUAUCGGAGAGGCCGAACAGAUACUUCGUUAGACAGGUUGCAGCGUUCGACAGGAGGCUCACAACAGGC
modifications: 2'-F pyrimidines
On to B3, for which the dissociation constant Kd in the data set with CD5L (CD5 antigen-like) [3] was 2.2 nM.

B4: S23 (ssRNA)
RNA: AGACAAGAAUAAACGCUCAAAAAGAGAGAAGGAUAAGAACCAUCAAAAAGAGAGAGCAGAGCCAGAUUCGACAGGAGGCUCACAACAGGC
modifications: 2'-F pyrimidines
Regarding B4, the dissociation constant Kd with CD5L (CD5 antigen-like) [1] was 92.1 nM.
In the case of AGGUUGCAGCGUUCGACAGGAGGCUCACAACAG (ssRNA, 2'-F pyrimidines) [S76.T], in the data set with CD5L (CD5 antigen-like) [4], the Kd stood at 10.1 nM.
